Biological target: Full-length human importin-α1 (h-importin-α1) (1–526) (human, UniProt P52292 1-526)
Assay: ITC
Settings: both partners purified

## PKKKRKV (source: synthetic peptide) [SV40 NLS peptide (PKKKRKV)]
  Kd: 102 ± 11 µM

Source: article PMC4319847 (PLoS ONE, 2015)
